Results reported in patent publication US20250114431A1, “COMPOUND, COMPOSITION AND METHODS FOR LOWERING CIRCULATING GLUCOSE” (THE HONG KONG POLYTECHNIC UNIVERSITY, priority 2023, published 2025).

Columns and labels:
HFD-fed obese mice = assay: Recombinant Plac9 in high-fat diet (HFD)-induced obese, diabetic (DM2) mouse model, biometric data and glucose tolerance test; type: in vivo, C57BL/6J mice; conditions: vs PBS control
Description: Turning to FIG. 2A, 8-week-old male C57BL/6J mice (n=8) were fed with a high-fat diet (HFD) for 12 weeks to induce a diabetes mellitus type 2 (DM2) model and then treated with 2 mg/kg (per body weight; hereinafter as “BW”) of recombinant mouse Plac9 (synthesized and purified from E. coli expressing mouse Plac9 represented by SEQ ID NO: 2; hereinafter as “mPLAC9”) once daily via intraperitoneal (i.p.) injection for 18 days to evaluate its effects on glucose uptake and tolerance in an obese, diet-induced diabetic model. Body weight (FIG. 2B), fasting blood glucose level (FIG. 2C), feeding blood glucose level (FIG. 2D) and blood insulin level (FIG. 2E) were measured at the beginning of the i.p. injection and then once every 3 days until the end of the experiment (i.e., Day 3, 6, 9, 12, 15 and 18). Another group of HFD-fed mice was injected with PBS once daily and measured with the same biometric data as in the Plac9-injected group (treatment group) once every 3 days from the beginning of the injection until the end of the experiment.
Glucose tolerance test (GTT) was also performed in both the treatment and control groups at Day 0 and Day 15 of the experiment. […] At Day 15, the overall blood glucose level was also lower in the treatment group than that of the control group over the 90-minute time course (FIGS. 2H-2I).

[1] = tested on: STZ-induced diabetic mice; assay: Recombinant Plac9 in streptozotocin (STZ)-induced insulin-deficient diabetic mouse model, biometric data and glucose tolerance test; type: in vivo, C57BL/6J mice
Description: Turning to FIG. 3A, 8-week-old male C57BL/6J mice (n=8) which were fed with standard chow (STC) diet were treated with streptozotocin (STZ) for 5 days to induce diabetes. Similar to Example 1, 2 mg/kg (BW) of recombinant mPLAC9 was administered to the STZ-induced diabetic mice via i.p. injection once daily for 18 days (treatment group). In parallel, PBS was injected to STZ-induced diabetic mice for 18 days as a control group.
GTT was also performed at Day 5 and Day 15 in this STZ-induced diabetic model. […] Similar trend was observed between the treatment and control groups at Day 15 (FIGS. 3H-3I).

[2] = tested on: MIN6 pancreatic beta cells; assay: Glucose stimulated insulin secretion assay in MIN6 cells (mouse insulin ELISA); type: cell-based; conditions: 10, 100 and 1000 nM, n=8; FIG. 5A
Description: (§1) To verify that the glucose homeostasis is regulated through liver or hepatocytes by overexpression of Plac9 in an insulin-independent manner, an in vitro insulin secretion assay was performed on confluent pancreatic beta cells, MIN6, in each well treated by […] of Exendin-4 or different concentrations of recombinant Plac9 of mouse origin at 10, 100 and 1000 nM (n=8) and measured the insulin content of each well by a mouse insulin ELISA kit. […] A glucose uptake assay was performed on primary hepatocytes and hepatic cell line, HepG2, treated with different concentrations (from 0.125 or 0.25 to 1.0 μM) in the presence or absence of exogenous 10 nM insulin, and the results are shown in FIGS. 5B and 5C, respectively.

primary hepatocytes = assay: Glucose uptake assay (2DG6P) in primary hepatocytes; type: cell-based
Description: as §1

B1: mPLAC9: recombinant mouse Plac9 synthesized and purified from E. coli expressing mouse Plac9 represented by SEQ ID NO: 2 (protein, listed as Mus musculus)
chain: EWGQGPRDTPGRRAAESPSSPGDLAGSPGCDRHAAVQRRLDIMEETVEKTVEHLEAEVTGLLGLLEELASNLPTGPFSPKPDLLGDDGF
- body weight change (HFD-fed obese mice; 2 mg/kg BW i.p. once daily, 18 days, FIG. 2B): no obvious weight change
- fasting blood glucose level (HFD-fed obese mice; 2 mg/kg BW i.p. once daily, 18 days, FIG. 2C): no obvious changes
- feeding blood glucose level (HFD-fed obese mice; 2 mg/kg BW i.p. once daily, 18 days, FIG. 2D): no obvious changes
- blood glucose level in glucose tolerance test (GTT) (HFD-fed obese mice; Day 0, 90-minute time course, FIGS. 2F-2G): more significantly reduced
- blood insulin concentration (HFD-fed obese mice; Day 15, 2 mg/kg BW i.p. once daily, FIG. 2E): reduced
- overall blood glucose level in glucose tolerance test (GTT) (HFD-fed obese mice; Day 15, 90-minute time course, FIGS. 2H-2I): lower
- change in body weight ([1]; 2 mg/kg BW i.p. once daily, 18 days, treatment vs PBS control, FIG. 3B): similar
- change in fasting glucose level ([1]; 2 mg/kg BW i.p. once daily, 18 days, treatment vs PBS control, FIG. 3C): similar
- change in feeding glucose level ([1]; 2 mg/kg BW i.p. once daily, 18 days, treatment vs PBS control, FIG. 3D): similar
- overall blood glucose level in GTT ([1]; Day 0, 90-minute time course, vs PBS control, FIGS. 3F-3G): lower
- blood insulin level ([1]; Day 0 to Day 5, treatment vs PBS control, FIG. 3E): similar
- blood insulin concentration ([1]; from Day 5 till the end of the experiment, no change in control group, FIG. 3E): increased
- restoration of blood insulin level to the level measured at Day 0 ([1]; till the end of the experiment, FIG. 3E): could not be restored
- insulin secretion [2]: does not induce insulin secretion
- glucose uptake (primary hepatocytes; 0.125 to 1.0 μM, with or without 10 nM insulin, FIG. 5B): enhanced by Plac9 is in a dose-dependent manner
- glucose uptake on co-administration with insulin (primary hepatocytes; co-administration with 10 nM insulin, overall statement for liver or hepatocytes (primary hepatocytes and HepG2)): further enhance the glucose uptake
